Molecular target: the molecule itself
Test: X-ray crystal structure at 2.15 Å, space group C2, 3 chains per asymmetric unit; homodimer seen in the crystal
Method: Crystals of mutant cinnamic acid decarboxylase FDC (K190E) in complex with 3-hydroxyl cinnamic acid were grown by the vapor diffusion method. Commercial screening Kit (Hampton research, Qiagen, Emerald Biosystems) was used for screening crystallization conditions. Different volume ratio of protein and reservoir were tested for crystallization. Hanging drops containing a 1:1, 1:2, or 2:1 mixture of protein (5-10 mg/ml) and crystallization buffer (10% (w/v) polyethylene glycol (PEG) 6000, 5% (w/v) 2-methyl-2,4-pantanediol (MPD), 0.1 M HEPES, pH 7.5, and 2 mM DTT) were maintained at 4° C. In particular, well diffracted crystals were grown in 7-11% (w/v) polyethylene glycol (PEG) 6000, 3% (w/v) 2-methyl-2,4-pantanediol (MPD), pH 6.5-7.5, and 2 mM DTT with 0.1% 3-hydroxyl cinnamic acid. Crystal conditions were further improved by adding 0.01M MnCl2, 0.5% (w/v) polyvinylpyrrolidone K15, 0.2M NDSB-201 or 2% (w/v) benzamidine hydrochloride as an additive.
The FDC(K190E) crystals grew in space group C2 with 3 chains per asymmetric unit. Unit cell dimensions for the crystal were a=249.51 Å, b=120.67 Å, c=158.49 Å, β=94.9°; Diffraction data were collected from single crystals mounted in a cryoloop and flash frozen in a nitrogen stream at 100 K and reduced with the HKL suite. Crystals were diffracted at 2.15 Å resolution. […]

B1: mutant cinnamic acid decarboxylase FDC (K190E) (enzyme)
chain: MRKLNPALEFRDFIQVLKDEDDLIEITEEIDPNLEVGAIMRKAYESHLPAPLFKNLKGASKDLFSILGCPAGLRSKEKGDHGRIAHHLGLDPKTTIKEIIDYLLECKEKEPLPPITVPVSSAPCKTHILSEEKIHLQSLPTPYLHVSDGGKYLQTYGMWILQTPDKKWTNWSIARGMVVDDKHITGLVIEPQHIRQIADSWAAIGKANEIPFALCFGVPPAAILVSSMPIPEGVSESDYVGAILGESVPVVKCETNDLMVPATSEMVFEGTLSLTDTHLEGPFGEMHGYVFKSQGHPCPLYTVKAMSYRDNAILPVSNPGLCTDETHTLIGSLVATEAKELAIESGLPILDAFMPYEAQALWLILKVDLKGLQALKTTPEEFCKKVGDIYFRTKVGFIVHEIILVADDIDIFNFKEVIWAYVTRHTPVADQMAFDDVTSFPLAPFVSQSSRSKTMKGGKCVTNCIFRQQYERSFDYITCNFEKGYPKGLVDKVNENWKRYGYK
notes: It was purified by the same process as FDC1: an N-terminal 6-His/SUMO tag was cleaved off by hydrolase; It was crystallised in complex with the small molecule 3-hydroxyl cinnamic acid; also called FDC1 K190E mutant; FDC mutant (K190E)
**Q.** Does B1 bind?
**A.** binds

From patent US20150337336A1 (PHYTOGENE, published 2015)
